Results: patent US20140086913A1 (Gilead, published 2014)

T1: mouse ECD-DDR1-Fc (mouse; human, UniProt Q03146 22-414)
T1 construct: also called mouse DDR1-ECD; wild-type mouse DDR1-ECD; not shown: human IgG1 Fc of the vector pFuse-hIgG1-Fc1 (Invivogen)
T1 sequence: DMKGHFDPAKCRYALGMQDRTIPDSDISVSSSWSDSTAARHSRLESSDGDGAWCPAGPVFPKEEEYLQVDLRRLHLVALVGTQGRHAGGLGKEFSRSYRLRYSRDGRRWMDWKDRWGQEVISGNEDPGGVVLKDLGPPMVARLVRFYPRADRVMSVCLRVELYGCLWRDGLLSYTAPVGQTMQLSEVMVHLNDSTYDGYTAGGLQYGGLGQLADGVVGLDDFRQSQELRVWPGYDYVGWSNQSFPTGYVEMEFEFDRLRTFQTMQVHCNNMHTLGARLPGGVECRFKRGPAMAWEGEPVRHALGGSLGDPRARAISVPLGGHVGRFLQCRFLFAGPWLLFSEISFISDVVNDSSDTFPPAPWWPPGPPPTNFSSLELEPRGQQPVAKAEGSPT

T2: human DDR2 stably expressed on HEK293 cells (human, UniProt Q16832 22-855)
T2 construct: whole, on cells; also called hDDR2
T2 sequence (looked up): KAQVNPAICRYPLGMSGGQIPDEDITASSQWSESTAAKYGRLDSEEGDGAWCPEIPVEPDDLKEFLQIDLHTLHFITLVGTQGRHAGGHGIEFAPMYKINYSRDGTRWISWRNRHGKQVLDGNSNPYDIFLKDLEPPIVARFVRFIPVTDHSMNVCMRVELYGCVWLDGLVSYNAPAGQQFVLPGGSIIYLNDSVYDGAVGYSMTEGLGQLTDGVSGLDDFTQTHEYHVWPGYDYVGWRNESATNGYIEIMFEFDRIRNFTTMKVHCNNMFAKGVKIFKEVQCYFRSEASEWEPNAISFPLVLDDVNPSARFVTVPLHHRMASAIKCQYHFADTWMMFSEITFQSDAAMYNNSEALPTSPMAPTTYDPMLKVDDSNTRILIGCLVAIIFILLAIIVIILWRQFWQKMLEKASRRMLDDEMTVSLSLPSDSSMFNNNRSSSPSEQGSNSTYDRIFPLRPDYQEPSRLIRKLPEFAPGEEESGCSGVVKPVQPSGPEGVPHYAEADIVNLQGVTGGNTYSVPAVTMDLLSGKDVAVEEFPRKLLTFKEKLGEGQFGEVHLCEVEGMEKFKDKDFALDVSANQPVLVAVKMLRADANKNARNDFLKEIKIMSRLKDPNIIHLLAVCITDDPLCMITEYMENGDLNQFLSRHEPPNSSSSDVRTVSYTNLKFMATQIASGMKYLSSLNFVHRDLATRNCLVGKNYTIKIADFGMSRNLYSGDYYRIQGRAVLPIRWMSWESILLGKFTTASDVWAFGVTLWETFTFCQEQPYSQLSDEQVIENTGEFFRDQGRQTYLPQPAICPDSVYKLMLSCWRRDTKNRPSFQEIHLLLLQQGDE

B1: AB2040 (antibody, V domains shown)
VH: EVMLVESGGGLVKPGGSLKLSCAASGFTFSNYAMSWVRQTPEKRLEWVAKTSSGDTYTYYPDSVKGRFTISRDNAKNTLYLQMTSLRSEDTAIYYCARQDYYGITPWFFDVWGAGTTVTVSS
VL: ENVLTQSPAIMSASPGEKVTMTCRASSSVSSIYLHWYQQKSGASPKLWIYSTSNLASGVPARFSGSGSGTSYSLTITSVEAEDAATYYCQQYSGYPLITFGAGTKLELKR
notes: mouse hybridoma mAb
B2: AB2054 (antibody, V domains shown)
VH: B1 VH
VL: B1 VL
notes: mouse hybridoma mAb
B3: AB2073 (antibody, V domains shown)
VH: B1 VH
VL: B1 VL
notes: mouse hybridoma mAb
B4: AB2003 (antibody, V domains shown)
VH: DVHLQESGPDLVKPSQSLSLTCTVTDYSITSGYGWHWIRQFPGNKLEWMGYIHYGGSTKYNSSLKSRISITRDTSKNQFFLQLKSVTTDDTGTYYCATSGNYGFAYWGQGTLVTVSA
VL: DIVLTQSPTSLAVSLGQRATMSCRASESVDDYGTSFMHWYQQKPGQPPKLLIYRASNLESGIPARFSGSGSRADFTLSINPVEPDDVATYYCQQSNEDPFTFGSGTKLEIKR
notes: mouse hybridoma mAb
B5: AB2019 (antibody, V domains shown)
VH: QVQLKQSGPGLVQPSQSLSITCTVSGFSFTGYGIHWVRQSPGKGLEWLGVIWSGGITDYNAAFISRLSISMDSSKGQVFFKMNSLQANDTAIYYCARRSTTVVADYAMDYWGQGTSVTVSS
VL: SIVMTQTPKFLLVSAGDRVTITCKASQSVSNDVAWYQQKPGQSPKLLIYYASNRYTGVPDRFTGSGYGTDFTFTINTVQAEDLAVYFCQQDYTSPLTFGAGTKLELKR
notes: mouse hybridoma mAb
B6: AB2032 (antibody, V domains shown)
VH: B5 VH
VL: B5 VL
notes: mouse hybridoma mAb

biological target: DDR1 endogenously expressed on human cancer cell lines (T47D, HCT-116, A431) (human) (UniProt Q08345); test: flow cytometry, T47D cells

| MFI [MFI] | Binder |
| --- | --- |
| 2810 | B1 |
| 5930 | B2 |
| 6050 | B3 |
| 6100 | B4 |
| 4950 | B5 |
| 6820 | B6 |

biological target: human DDR1 (isoform B) stably expressed on HEK293 cells (human) (UniProt Q08345); test: flow cytometry, HEK293/hDDR1
Sequence (Q08345 19-913): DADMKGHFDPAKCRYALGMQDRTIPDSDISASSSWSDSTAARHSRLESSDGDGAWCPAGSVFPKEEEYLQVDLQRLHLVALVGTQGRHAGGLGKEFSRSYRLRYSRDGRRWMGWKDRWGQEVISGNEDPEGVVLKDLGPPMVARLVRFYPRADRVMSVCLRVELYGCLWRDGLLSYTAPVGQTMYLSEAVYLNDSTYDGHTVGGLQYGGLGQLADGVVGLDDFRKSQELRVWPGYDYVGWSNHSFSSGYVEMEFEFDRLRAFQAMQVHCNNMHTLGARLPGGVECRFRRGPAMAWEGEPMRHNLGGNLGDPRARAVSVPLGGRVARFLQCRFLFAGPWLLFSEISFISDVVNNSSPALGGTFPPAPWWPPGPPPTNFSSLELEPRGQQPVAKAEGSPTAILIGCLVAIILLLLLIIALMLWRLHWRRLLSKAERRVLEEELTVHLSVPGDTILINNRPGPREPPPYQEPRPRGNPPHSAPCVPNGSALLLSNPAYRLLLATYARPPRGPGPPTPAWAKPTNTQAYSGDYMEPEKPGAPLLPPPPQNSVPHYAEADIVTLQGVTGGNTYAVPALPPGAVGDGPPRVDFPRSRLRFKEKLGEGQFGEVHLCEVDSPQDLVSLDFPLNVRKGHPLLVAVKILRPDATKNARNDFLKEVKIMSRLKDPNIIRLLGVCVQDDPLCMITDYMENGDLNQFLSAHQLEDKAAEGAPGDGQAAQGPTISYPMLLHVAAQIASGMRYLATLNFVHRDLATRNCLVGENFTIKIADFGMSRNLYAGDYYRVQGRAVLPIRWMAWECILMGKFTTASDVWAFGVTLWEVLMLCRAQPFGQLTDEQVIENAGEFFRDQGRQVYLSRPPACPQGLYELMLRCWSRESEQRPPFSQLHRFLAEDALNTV

| MFI [MFI] | Binder |
| --- | --- |
| 13700 | B1 |
| 15500 | B2 |
| 16200 | B3 |
| 15000 | B4 |
| 12600 | B5 |
| 13700 | B6 |

biological target: DDR1 endogenously expressed on human cancer cell lines (T47D, HCT-116, A431) (human) (UniProt Q08345); test: cell-based or functional assay

| EC50, DDR1 phospho-specific ELISA (T47D) [nM] | NPI of cluster formation at 66 nM (A431 cells) [%] | EC50, cluster formation assay (A431 cells) [nM] | Maximal inhibition, DDR1 phospho-specific ELISA (T47D) [%] | Binder |
| --- | --- | --- | --- | --- |
| 0.34 | 3.6 | – | – | B1 |
| 0.36 | 3.6 | – | – | B2 |
| 0.45 | -0.2 | – | – | B3 |
| 0.42 | 128 | 2.38 | 100 | B4 |
| 0.66 | 113 | – | 100 | B5 |
| 0.64 | 103 | 6.89 | 100 | B6 |

biological target: T1, mouse ECD-DDR1-Fc; test: ELISA, coated antigen
Description: (§1) In this study, ELISA was used to determine the affinity of murine anti-DDR1 monoclonal antibodies to the extracellular domain (ECD) of either human or murine DDR1. A 96-well MaxiSorb ELISA plates (Nunc) were coated with 2 μg/mL of one of three purified recombinant tagged proteins: human ECD-DDR1-His protein, human ECD-DDR1-Fc, or mouse ECD-DDR1-Fc overnight at 4° C. The next day, the plates were blocked with 5% bovine serum albumin (BSA, Jackson Immunoresearch) prior to the addition of serially diluted anti-DDR1 monoclonal antibodies. Antibodies were incubated for 1 hr at room temperature. The binding of antibody to the antigen was detected by incubating samples with anti-mouse IgG-HRP (horse radish peroxidase) secondary detection antibody (Jackson Immunoresearch) for 1 hr. After a washing step, 3,3′,5,5″-tetramethylbenzidine (TMB) reagent was added for HRP to produce a colorimetric signal. The reaction was stopped by addition of 1M hydrochloric acid after 2 minutes and measured for absorbance (optical density, OD) at 450λ on a Molecular Devices plate reader. The OD values were plotted against antibody concentration and fitted using a using 4-parameter logistic equation in SoftMax software (Molecular Devices). The apparent affinity constant (KD) was taken from the C-parameter of the equation (y=(A−D)/(1+(x/C)̂B)+D). The apparent affinity constants were summarized (in some cases shown as average values) in Table 10 below. Lower value indicates higher binding affinity of the antibody to the antigen.

| binding result | Binder |
| --- | --- |
| no binding | B1 |
| no binding | B2 |
| no binding | B3 |
| no binding | B4 |

biological target: DDR1 endogenously expressed on human cancer cell lines (T47D, HCT-116, A431) (human) (UniProt Q08345); test: flow cytometry, HCT116 cells

| MFI [MFI] | Binder |
| --- | --- |
| 2210 | B1 |
| 1530 | B2 |
| 1690 | B3 |
| 1410 | B4 |
| 1490 | B5 |
| 1900 | B6 |

biological target: DDR1 with a ProLink Tag (PK) in engineered U20S cells (DiscoveRx), Q08345; test: cell-based or functional assay

| Mean EC50, DDR1 Tyr513 phosphorylation assay (U20S) [nM] | Binder |
| --- | --- |
| 3 | B4 |
| 6.6 | B5 |
| 7.72 | B6 |

biological target: T3, DDR1ECD-Fc (R&D Systems, Catalog #2396-DR) (human, UniProt Q08345 21-416); test: ELISA, coated antigen, apparent KD
T3 construct: range 21-416; construct as described for the bought immunogen; also called human ECD-DDR1-Fc; Fc-ECD-DR1; not shown: human IgG1, Pro100-Lys330
Description: as §1

| Kd [nM] | Binder |
| --- | --- |
| 0.254 | B1 |
| 0.31 | B2 |
| 0.209 | B3 |
| 0.216 | B4 |
| 0.324 | B5 |
| 0.596 | B6 |

biological target: T4, human ECD-DDR1-His protein (human, UniProt Q08345 21-416); test: ELISA, coated antigen, apparent KD
T4 construct: also called huDDR1-ECD-His; DDR1ECD-6Xhis; not shown: His tag
Description: as §1

| Kd [nM] | Binder |
| --- | --- |
| 0.115 | B1 |
| 0.154 | B2 |
| 0.2 | B3 |
| 0.153 | B4 |
| 0.372 | B5 |
| 0.5 | B6 |

biological target: T2, human DDR2 stably expressed on HEK293 …; test: flow cytometry, HEK293/hDDR2
Description: Additional monoclonal antibodies were obtained from individual hybridomas in Example 1 and were characterized for their properties.
Cells were cultured in DMEM with 10% FBS and 0.8 mg/mL hygromycin. When cells reached 60-80% confluence, they were centrifuged at 1,200 rpm for 5 minutes, suspended in FACS buffer (1×PBS, 1% BSA), and aliquoted into a 96-well plate at 1×10⁶ cells per well. The anti-DDR1 monoclonal antibodies or appropriate isotype controls at 2 μg per 1×10⁶ cells were added and incubated at 4° C. for 1 hr. The cells were washed twice with FACS buffer then stained with the anti-IgG-PE secondary antibody at 10 μL per well at 4° C. for 1 hr. The cells were washed again and measured for the MFI values or signals using flow cytometry (LSR Fortessa instrument, BD Biosciences). Background MFI signals from vector-only cells (i.e. no DDR1 or DDR2 expression) was subtracted from those of the cells treated with antibodies. Higher MFI values or signals indicated increased binding or specificity of the anti-DDR1 antibodies to the DDR1 on the cell surface.

| MFI [MFI] | Binder |
| --- | --- |
| 308 | B1 |
| 306 | B2 |
| 410 | B3 |
| 176 | B4 |
| 244 | B5 |
| 265 | B6 |
